This note sets out measurements from PMC4605301, “hSSB1 (NABP2/ OBFC2B) is required for the repair of 8-oxo-guanine by the hOGG1-mediated base excision repair pathway”.

The series has as its target hSSB1 (NABP2/OBFC2B) (Homo sapiens, UniProt Q9BQ15 1-211). As to the kind of experiment: EMSA; 0-2 uM hSSB1; 90 fmol DNA in 10 ul; 8-oxoG opposite C (pairing base inferred); EMSA: 50 mM Tris-HCl pH 7.5, 100 mM KCl, 100 ug/ml BSA, 15 min at 37 C; 8% polyacrylamide gel. The conditions noted are these: protein: recombinant; tags: N-terminal His6; label: 5' FAM; blunt.

Chain of hSSB1 (NABP2/OBFC2B) (Q9BQ15 whole entry): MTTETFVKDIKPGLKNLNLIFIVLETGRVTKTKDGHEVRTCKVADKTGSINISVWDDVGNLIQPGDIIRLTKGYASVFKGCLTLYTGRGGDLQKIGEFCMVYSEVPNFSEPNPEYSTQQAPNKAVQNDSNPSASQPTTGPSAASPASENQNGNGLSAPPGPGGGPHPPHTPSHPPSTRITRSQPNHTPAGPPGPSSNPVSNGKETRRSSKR

B1: 8-oxoG:C dsDNA (dsDNA)
DNA 1: CTCTCCCTTCGCTCCTTTCCTCT
DNA 2: AGAGGAAAGGAGCGAAGGGAGAG
modifications: 8-oxoguanine at position 11 of strand 1 (written G)
In the case of B1, the binding result is “binds”.
